Reference: article PMC8495200

Tests used:
Assay in all cases: native gel or EMSA; Blue Native PAGE, purified recombinant non-tagged proteins in 1 x PBS, 1 mM DTT, 1 mM ATP; 4-16% Bis-Tris gels, cold room, Coomassie staining
[1] = molecular target: UBXD9^384–573, GST tag cleaved (D. discoideum)
[2] = molecular target: UBXD9^331–573, GST tag cleaved (D. discoideum)
[3] = molecular target: UBXD9^261–573, GST tag cleaved (D. discoideum)

“UBXD9^384–573, GST tag cleaved (domain or fragment)” gave a stoichiometry N [1] of 6.

In the case of “UBXD9^331–573, GST tag cleaved (domain or fragment)”, the stoichiometry N [2] is reported as 6.

“UBXD9^261–573, GST tag cleaved (domain or fragment)” gave a stoichiometry N [3] of 6.
